Assay: Blood haemoglobin level in cancer patients (case examples 1-9)
Type: in vivo, human
Text: […] Diagnosis: progressive diffuse-nodular multiple myeloma of the stage IIIB. Myelogenic nephropathy, stage III CKD, terminal stage. Chronic programmed dialysis. The initial level of haemoglobin was 72 g/l. The receiving of EPO 20000 IU and iron preparations was prescribed for a month, as a result of which the level of haemoglobin increased to 84 g/l. However, the patient's condition worsened, and there were diagnosed acute transmural myocardial infarction and weight loss in the patient. The patient was prescribed the administration of 30 ml of the sterile pyrogen-free aqueous solution of the poloxamer comprising 13.3 wt % poloxamer-188 (Emuxol-268 of Grade “A”) and water for injection as the remaining part for 30 days. The level of haemoglobin was 116 g/l. Then, 30 ml of the said poloxamer solution was administered to the patient on a daily basis during 9 courses of chemotherapy (cyclophosphan and boramilane), while EPO and iron preparations were no longer prescribed. The level of haemoglobin was maintained in the range of 116-125 g/l.
[…] Diagnosis: locally advanced or metastatic bladder cancer of the 4t^h stage with lumbar vertebral metastases. The initial level of haemoglobin was 129 g/l.
Immunotherapy 1: the patient underwent a course of the therapy with the nivolumab preparation (Opdivo) for 4 months. […]

## nivolumab
Example 2, Patient A, bladder cancer 4th stage, nivolumab (Opdivo) for 4 months with regular donated red blood cell transfusion, initial level 129 g/l
  level of haemoglobin after therapy: 123000 µg/mL
Example 5, Patient D, right kidney tumor with metastases, nivolumab (Opdivo) immunotherapy, 1 course, initial level 148 g/l
  level of haemoglobin after 1 course: 104000 µg/mL

— US20220023333A1, “METHOD FOR INCREASING CANCER PATIENT'S HAEMOGLOBIN LEVEL” (priority 2019, published 2022)
